Measured values from patent CN113336845A (LANZHOU VETERINARY RES INST CAAS, dated 2021).

Target: T1, 融合蛋白3AN (FMDV 3A epitope fused to PRRSV N protein)
T1 construct: also called 3AN融合蛋白; 3AN蛋白抗原
Assay: ELISA, biotin-labelled C8 detects 3AN captured by 3A24

B1: 猪繁殖与呼吸综合征病毒核衣壳蛋白的猪源单个B细胞抗体C8 (antibody, V domains shown)
VH: GLVQPGGSLRLSCVASGFTFSSYIVTWVRQSPGKGLEWLAGTGVGEYALYYRNSVRGRFTLSRDNSQNTAYLQMNSLRVEETGRYFCRRGAAESVDLWGPGVEVVVSS
VL: QEPAMSVSLGGTVTLTCAFSSGSVTRSHWPSWFQLTPGQPPRTLIVSTDSRPTGVPSRFSGAISGYKAALTITGAQPEDEADYVCGVYFTFTKRPFGGGTHLTVLG
notes: also called C8单抗; 单克隆抗体C8
**Q.** Does B1 bind?
**A.** binds
